Measurements published in US7132274B2, “Method for identifying modulators of CLK-1 and UbiF activity” (priority 2003, dated 2006).

Key:
[1] = system: E. coli JF496 (ubiF411); experiment: JF496 complementation (growth rescue) assay; assay type: cell-based; settings: C. elegans CLK-1 variants expressed in JF496; growth rate relative to wild type CLK-1
Text: JF496 is useful for complementation assays using eukaryotic clk-1. As with all other ubi mutants, JF496 has a weak growth in liquid culture, and cannot use succinate as a unique carbon source. These characteristics were used to develop a gain-of-function assay, where JF496 was transformed with a eukaryotic clk-1 (here from C. elegans) and then wild-type growth was identified. Transgenic E. coli ubiF (Kwon et al., 2000 FEMS Microbiol Lett, 186, 157–161), and clk-1 from proteobacteria (Stenmark et al., 2001 J Biol Chem, 276, 33297–33300) have been tested in JF496.
Growth conditions—For complementation assays, plasmids are freshly transformed by electroporation into E. coli JF496 ubiF(DE3) and grown overnight at 37° C. in 5 mL LB with 50 μg/mL ampicillin. The cultures are diluted 1/10 and OD600 measured. A bacterial volume corresponding to an OD600 of 0.03 in 5 mL is taken, centrifuged and resuspended in 100 μl of M9 medium. It is then added into 5 mL M9 containing 1 mM MgSO4, 20 μM CaCl2, 0.5 μg/mL thiamine, 0.12% casamino acids, 40 μg/mL D-L-methionine, 100 μg/mL L-asparagine, trace metals and 50 μg/mL ampicillin. This medium is supplemented with 0.5% glucose or 0.5% succinate. E. coli JF496 is grown at 37° C. for 8 hours. Samples (700-μL) are taken at 2-hour intervals and the OD600 is measured in order to determine the growth rate.
Growth conditions—as described above in Section 6.1
A selection of CLK-1 variants were constructed by site-directed mutagenesis and cloned into the JF496 system to assess their enzymatic activity relative to the wild type. The respective strains of JF496-clk-1 variants were cultured as described and the growth rate of each were measured. The results as shown in Table 4 indicate that certain residues and regions are not tolerant of amino acid substitution (amino acid substitution is indicated by one-letter codes).

[2] = system: E. coli JF496 (ubiF411); settings: yeast orthologue of clk-1; cited from earlier work

Row | Molecule | Activity in JF496 system [1] | complementation of UbiF-deficiency in JF496 bacteria [2]
1 | CDB 716: C. elegans CLK-1 variant, mutation H118A (protein, UniProt P48376 9-187, looked up, variant H118A) NADPH-dependent …: AHTAASRQALIEKIIRVDHAGELGADRIYAGQLAVLQGSSVGSVIKKMWDEEKEHLDTMERLAAKHNVPHTVFSPVFSVAAYALGVGSALLGKEGAMACTIAVEELIGQAYNDQLKELLADDPETHKELLKILTRLRDEELHHHDTGVEHDGMKAPAYSALKWIIQTGCKGAIAIAEKI | Inactive | 
2 | Saccharomyces pombe coq7: yeast orthologue of clk-1 (protein, UniProt O74826 28-216, looked up) 5-demethoxyubiquinone …: ISMGRKELSEKDSNILDSVIRVDQAGELGANQIYKGQHFILQFTDPKVAPTIQHMWDQEKYHLATFDNYVLKNRVRPTFLRPFWDIAGFALGAGTALLGTKAAMACTEAVETVIGGHYNDQLRETAHLENKAPEFKEIRSHLAEFRDDELEHLNTAVEGWNAKEAPAHALLTNAIQMGCKAAIWMCKRF |  | cannot complement
